Measurements as given in publication PMC3399781 (Structure (London, England : 1993), 2010).

Target: the molecule itself
Experiment: AUC

B1: 2GS mGRFT (GRFT with GSGS inserted between Ser16 and Gly17) (natural protein)
chain: SLTHRKFGGSGGSPFSGSGSGLSSIAVRSGSYLDAIIIDGVHHGGSGGNLSPTFTFGSGEYISNMTIRSGDYIDNISFETNMGRRFGPYGGSGGSANTLSNVKVIQINGSAGDYLDSLDIYYEQY
- Kd: 1170 µM
